Measured values as given in the nanobody polyreactivity screen of Harvey et al. (2022).

Assay: yeast display, Sf9 membrane polyspecificity reagent, FACS + sequencing; frameworks hold sequencing errors
How it was run: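 Genes from sorted yeast were amplified by colony PCR, read by MiSeq 2 × 250 sequencing and filtered on CDR length. These cells carried a synthetic nanobody library in Saccharomyces cerevisiae BJ5465 and were sorted by FACS into low and high (top ~1%) gates on anti-HA and streptavidin fluorescence. Polyreactivity is labelled according to the gate of origin.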

Sequence: QVQLVESGGGLVQAGGSLRLSCAASGLTFYYYAMGWYRQAPGKEREIVAAISRSGGTTYYADSVKGRFTISRDTAKNTVYLQMNSLKPEDTAVYYCNAQWWRYWPSQVIFDYWGQGTQVTVSS
- polyreactivity (PSR sort gate): high polyreactivity

Sequence: QVQLVESGGGLVQAGGSLRLSCAASGSTIPYYAMGWYRQAPGKERELVARIRWNGDSTFYADSVKGRFTISRDNAKNTVYLQMNSLKTEDSAVYYCAAYGKRLGERLNYYYWGQGTQVTVSS
- polyreactivity (PSR sort gate): high polyreactivity

Sequence: QVQLVESGGGLVQAGGSLRLSCAASGSIFTWYAMGWYRQAPGKERELVAAITTGGDTYYADSVKGRFTISRDNAKNTVYLQMNSLKPEDTAVYYCAATPTYWYLCSPYDYWGQGTQVTVSS
- polyreactivity (PSR sort gate): low polyreactivity

Sequence: QVQLVESGGGLVQAGGSLRLSCAASGGTFRPNAMGWYRQAPGKERELVAAITRSGGSTYYADSVKGRFTISRDNAKNTVYLQMNSLKPEDTAVYYCARDLREWGQGTQVTVSS
- polyreactivity (PSR sort gate): low polyreactivity

Sequence: QVQLVESGGGLVQAGGSLRLSCAASGRTFRRYAMGWYRQAPGKERELVAAISRGANTNYADSVKGRFTISRDNAKNTVYLQMNSLKPEDTAVYYCIAKQAGYYFAFGYWGQGTQVTVSS
- polyreactivity (PSR sort gate): high polyreactivity

Sequence: QVQLVESGGGLVQAGGSRRLSCAASGLIFVRYAMGWYRQAPGKERELVATISSRGASTYYADSVKGRFTISRDNAKNTVYFQMNSLKPEDTAVYYCNAGRLRRSYKPYDYWGQGTQVTVSS
- polyreactivity (PSR sort gate): high polyreactivity

Sequence: QVKLVESGGGLVQAGGSLRLTCAASGRTFARYAMGWSRQEPGKERELVAAISRRGTSTYYADSVKGRFTISRDNAKNTVYLQMNSLKPEDTAVYYCAVDPYLGHYDYWGQGTQVTVSS
- polyreactivity (PSR sort gate): high polyreactivity

Sequence: QVQLLESGGGLVQAGGSLRESCAASGSMFSHNTMGWYRQAPGKERELVATINWRATYYADSVKGRFTISRDNAKNTVYLQMNSLKPEDTAGYYCNKDRQRYGEDYWGQGTQVTVSS
- polyreactivity (PSR sort gate): high polyreactivity

Sequence: QVQLVESGGGLVQAGGSLRLSCAASGRTFWYYARGWYRQAPGKERELVAYADSVKGRFTISRDNAKNTVYLQMNSLKQEDTAVYYCAVGPVVWFSSSLYYTDYYYWGQGTQVTVSS
- polyreactivity (PSR sort gate): low polyreactivity

Sequence: QVQLVESGGGIVQAGGSLRLSCAASGRTIPYHAMGWYRQAPGKERELDAAISYSGGRTYYADCVKGRFTISRDNAKNSVYLLMNSLKPDDTAVYYCNALGSGREDVYWGQGTQVTVSS
- polyreactivity (PSR sort gate): high polyreactivity

Sequence: QVQLVESGGGLVQAGGSLRLSCAASGIIFQSYTMGWYRQPPGKERELVAAIDSGGSTYYADSVKGRFTISRDNAKNTVYLQMNSLKPEDTAVYYCATDYPLSWSPLYDYDYWGQGTQVTVSS
- polyreactivity (PSR sort gate): low polyreactivity

Sequence: QVQLVESGGGLVQAGGSLRLSCAASGRTFSINAMGWYSQAPGKERELVAAISYTGGSTYYADSVKGRFTISRDNAKNTVYLQMNSLKPEDTAVYYCAASSSRTYYGRYYYWGQGTQVTVSS
- polyreactivity (PSR sort gate): high polyreactivity

Sequence: QVQLVESGGGLDQAGGSLRLSCAASGGTFARYAMGWYRQAPGKERELVAAISARGGSTYYADSVKGRFTISRDNAKNTVYLQMNSLKPEDTAVYYCAAKKWYDRYGFDYWGQGTQVTVSS
- polyreactivity (PSR sort gate): high polyreactivity

Sequence: QVQLVESGGGLVQAGGSLRLSCAASGSTFGKYAMGWYRQAPGKERELVAAITTGGNTYYADSVKGRFTISRDNAKNSVYLQMNSLKPEDTAVYYCNAKRSFRVDYWGQGTQVTVSS
- polyreactivity (PSR sort gate): low polyreactivity

Sequence: QVQLEESGGGLVQAGGSLRLSCAASGYIFRFYTMGWYRQAPGKERELVAAISSGGSTNYADSVKGRFTISRANAKNTVYLQMNSLKPEDTAVYYCAARFYSRYYWGQGTQVTVSS
- polyreactivity (PSR sort gate): low polyreactivity

Sequence: QVQLVESGGGLVQAGGSLRLSCAASGIIFYNNAMGWYRKAPGKERELVADITSGNTNYADSVKGRFTISRDNAKNTVYLQMNSLKPEDTAVYYCNAEDDYTYDRSFGGYKYDYWGQGTQVTVSS
- polyreactivity (PSR sort gate): low polyreactivity

Sequence: QVQLVESGGGLVQAGGSLRLSCAASGRIFSPYAMGWYRQAPGKERELVAAITRNGGRTYYADSVKGRFTISRDNAKNTVYLQMNSLKPEDTAVYYCAAAKQSGNDYWGQGTQVTVSS
- polyreactivity (PSR sort gate): low polyreactivity

Sequence: QVQLVESGGGLVQAGGSLRLSCAASGRTFDLNAMGWYRQAPGKERELVAGISSSGGRTYYADSVKGRFTISRDNAKNTVYLQMNSLKPEDTAVYYCAKVYPSYVLRKYDYWGQGTQVTVSS
- polyreactivity (PSR sort gate): high polyreactivity

Sequence: QVKLVESGGGLVQAGGSLRLSCAASGFIFRGYAMGWYRQAPGKERELVAAINYSGGSTYYADSVKGRFTISRDYAKNTVYLQMNSAKPEYTAVYYCNALGLRYYEYDYWGQGTQVNVSS
- polyreactivity (PSR sort gate): low polyreactivity

Sequence: QVQLVESGGGLVQAGGSLRLSCAASGSIFDHYVMGWYRQSPGKERELVAAITSGDRTNYADSVKGRFTISRDNAKNTVYLQMNSLKPEDTAVYYCNADYQSYFYYTTWYYEYDYWGQGTQVTVSS
- polyreactivity (PSR sort gate): low polyreactivity

Sequence: QVHLVESGGGLVHAGGSLRLSSAASGFIFRYYAMGWYRQAPGKERELVAAITSLGGRTYYADSVNGRFTISRDYAKNTVYLQMNSLKPEDTAVFYCAKSTRGTYDMGFWGQVTQVTVSS
- polyreactivity (PSR sort gate): high polyreactivity

Sequence: QVQLVESGGGLVQAGGSLRLSCAASGGIFAQYAMGWYRQAPGKEREFVATISTSGGSTYYADSVKGRYTISRDNAKNTVYLQMNSLKPEDTAVYYCARYSYRGTNVRYDYWGQGTQVTVSS
- polyreactivity (PSR sort gate): high polyreactivity

Sequence: QEQLQESGGGLVKAGGSLRLSCAASGNISNHNDMGWYRQAPGKEREFVAGITAGGITNYADSVKGRFTISRDNAKNTVYLQMNSLKPEDTAVYYCAAYPDYAKSYGYWGQGTQATVSS
- polyreactivity (PSR sort gate): low polyreactivity

Sequence: QVQLVESGGGLVQAGGSLRLSCAASGFTFSYYAMGWDRQAPGKERELVAVISNSDGSTYYADSVKGRFTISRDNAKNTVYLQMNSLNPEDTAVYYCAAVPLWDYKFFYYLLYDYWGQGTQVTVSS
- polyreactivity (PSR sort gate): low polyreactivity

Sequence: QVQLVESGGGLVQAGGSLRLSCAASGSIFPNGMGSYRQAPGKERELVATITSGGSTYYADSVKGRFTISRDNAKNTVYLQMNSLKPEETAVYYCADTVYGGYSGSGCNYWGKGTQVTVSS
- polyreactivity (PSR sort gate): low polyreactivity

Sequence: QVQLVESGGGLVQAGGSLRLSCAASGSIFVTNAMGWYRQAPGKERELVAAISWSGDNTYYADSVKGRFTISRDNAKNTFYLQMNSLIPEDTAVYYCSTDVWYSYDYYYGDWGYEYWGQGTQVTVSS
- polyreactivity (PSR sort gate): high polyreactivity

Sequence: QVQLVESGGGLVQAGGSLRLSCAASGFTFKGNAMGWYRQAPGTERELVATITQSAGSTYYADSVKGRFTISRDNAKNTVYLEMNSLKPEDTAVYYCNADPITLYYYSWYNYWGQGTQVTVSS
- polyreactivity (PSR sort gate): low polyreactivity

Sequence: QVQLVESGGGLVQAGGSLRLSCAASGFIFNRYAMGWYRQAPGKERELVATITRRGGRTYFADSVKGRFTISRDNAKNTVYLQMNSLKPEDTAVYYCNADPNVPVETFDYWGQGTQVTVSS
- polyreactivity (PSR sort gate): high polyreactivity

Sequence: QVQLVESGGGLVQAGGSLRLSCAASGSIFGYYTMGWYRQAPGKERELVAAITRSGATTFYADSVKGRFTISRDNAKNTVYLQMNSLKPEDTAVYYCAAKARGYTRGYWGQGTQVTVSS
- polyreactivity (PSR sort gate): high polyreactivity

Sequence: QVQLVESGGGLVQAGGSLRLSCAASGRTFYGYAMGWYRQAPGKEREFVAAITYSGGRTYYADSVKGRFTISRDNAKNTVYLQMNSLKPEETAVYYCNAYYYYVNQGRYEYGYWGQGTQVTVSS
- polyreactivity (PSR sort gate): high polyreactivity

Sequence: QVQLVESGGGLVQAGGSLRLSCAASGRTFRCYAMGWYRQAPGKETELVAAITFSGGSTYYADSVKGRFTISRDNAKNTVYLQMNSLKPEDTAVYYCNAVYYRRKEYDYWGQGTQVTVSS
- polyreactivity (PSR sort gate): high polyreactivity

Sequence: QVQLVESGGVLVQAGGSLRLSCAASGYINGRYVMGWYRTAPGKETELVAAITSSGGSTYYADSVKGRFTISRDNAKNTVYLQINILSPDDTAVYYCAAPTYGRFLRNDYWGPGTQVTVSS
- polyreactivity (PSR sort gate): high polyreactivity
